Reference: paper PMC4893161, “The Dynamic Localization of Cytoplasmic Dynein in Neurons Is Driven by Kinesin-1” (Neuron, 2016)

Legend:
[1] = biological target: KLC2^TPR, purified TPR domain of KLC2; experiment: fluorescence polarisation; TAMRA-conjugated DIC1 tryptophan-motif peptides with purified KLC1 or KLC2 TPR domain; KD values determined at 150 mM NaCl
[2] = biological target: HA-tagged KLC1 (kinesin light chain 1) (UniProt O88447); experiment: co-immunoprecipitation (IP with anti-mCherry, western blot band intensity); conditions: COS cells cotransfected, n = 6 experiments, parent: est. 1, read off a plot
Sequence of HA-tagged KLC1 (kinesin light chain 1) (O88447 whole entry): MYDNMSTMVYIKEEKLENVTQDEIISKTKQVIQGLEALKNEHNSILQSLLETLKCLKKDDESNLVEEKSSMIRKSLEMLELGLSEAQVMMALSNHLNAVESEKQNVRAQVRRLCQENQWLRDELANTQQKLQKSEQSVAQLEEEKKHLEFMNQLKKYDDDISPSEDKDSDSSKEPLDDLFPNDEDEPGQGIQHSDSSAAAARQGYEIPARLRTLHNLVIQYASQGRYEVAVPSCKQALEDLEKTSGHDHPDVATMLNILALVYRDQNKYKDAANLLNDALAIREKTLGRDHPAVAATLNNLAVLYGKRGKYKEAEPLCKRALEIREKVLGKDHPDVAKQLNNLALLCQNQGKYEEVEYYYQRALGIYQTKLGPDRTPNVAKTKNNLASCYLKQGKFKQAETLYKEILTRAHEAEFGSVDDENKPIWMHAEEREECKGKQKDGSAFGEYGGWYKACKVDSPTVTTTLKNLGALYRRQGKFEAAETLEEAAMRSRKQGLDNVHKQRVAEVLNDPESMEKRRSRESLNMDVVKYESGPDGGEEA

[3] = biological target: HA-tagged KLC2 (kinesin light chain 2) (UniProt O88448); experiment: as above; conditions: COS cells cotransfected, n = 4 experiments, parent: est. 1, read off a plot
Sequence of HA-tagged KLC2 (kinesin light chain 2) (O88448 whole entry): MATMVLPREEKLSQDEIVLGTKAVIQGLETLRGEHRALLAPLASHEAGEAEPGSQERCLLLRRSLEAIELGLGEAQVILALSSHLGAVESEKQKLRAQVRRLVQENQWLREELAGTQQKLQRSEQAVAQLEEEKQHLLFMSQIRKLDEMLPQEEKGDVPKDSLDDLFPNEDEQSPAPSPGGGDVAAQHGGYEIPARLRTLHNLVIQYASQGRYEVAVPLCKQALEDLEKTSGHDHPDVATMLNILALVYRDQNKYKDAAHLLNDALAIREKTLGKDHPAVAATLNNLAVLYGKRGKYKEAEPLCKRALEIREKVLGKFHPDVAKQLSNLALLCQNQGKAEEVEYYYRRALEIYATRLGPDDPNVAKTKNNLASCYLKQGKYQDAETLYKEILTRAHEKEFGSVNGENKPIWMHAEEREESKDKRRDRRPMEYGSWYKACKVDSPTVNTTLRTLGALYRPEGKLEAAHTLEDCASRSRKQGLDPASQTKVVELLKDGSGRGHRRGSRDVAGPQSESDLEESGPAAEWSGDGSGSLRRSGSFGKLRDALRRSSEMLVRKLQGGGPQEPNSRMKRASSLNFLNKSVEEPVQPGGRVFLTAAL

Work on “WD1^pept, TAMRA-conjugated 11-amino-acid peptide centered on the first tryptophan motif of DIC1” yielded a Kd [1] of 9.18 µM.
In the case of “mCherry-tagged DIC1a (dynein intermediate chain 1, isoform a), wild-type (from UniProt Q63100) WD1AA”, the ratio to parent ([2]; p = 1 vs WT) is reported as 0.93 and the ratio to parent ([3]; p = 0.4 vs WT) is reported as 0.77.
“mCherry-tagged DIC1a (dynein intermediate chain 1, isoform a), wild-type (from UniProt Q63100) WD1&2AA” gave a ratio to parent ([2]; p = 0.039 vs WT) of 0.47 and a ratio to parent ([3]; p = 0.014 vs WT) of 0.53.
With “mCherry-tagged DIC1a (dynein intermediate chain 1, isoform a), wild-type (from UniProt Q63100) WD2AA” the ratio to parent ([2]; p = 0.08 vs WT) was 0.53 and the ratio to parent ([3]; p = 0.064 vs WT) was 0.63.
